# Experimental data from patent US20240190966A1.
# Several values for one entry are separate records, joined by “and”; a condition that tells them apart may be missing. Identical values can stand only once. Like-named read-outs stand apart in the source and are kept apart here.
# T1: 27mer cyno CD3 polypeptide conjugated to biotin (cynomolgus monkey)
# T1 sequence (peptide, biotin conjugated (site not stated)): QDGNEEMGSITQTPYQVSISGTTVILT
# Key:
# [1] = biological target: T1, 27mer cyno CD3 polypeptide conjugated to biotin (cynomolgus monkey); assay: BIAcore T200 SPR; biotinylated 27mer CD3 peptide on SA chip; TDB flowed at 37 C
# [2] = biological target: T1, 27mer cyno CD3 polypeptide conjugated to biotin (cynomolgus monkey); assay: as above; remark: listed apart in the source
# [3] = biological target: cynomolgus monkey LY6G6D-Fc (cynomolgus monkey); assay: BIAcore SPR; LY6G6D-Fc immobilized; TDB flowed at 37 C
# [4] = biological target: cynomolgus monkey LY6G6D-Fc (cynomolgus monkey); assay: BIAcore SPR; two-cell TDB with 38E4.v1 arm
# [5] = biological target: cynomolgus monkey LY6G6D-Fc (cynomolgus monkey); assay: BIAcore SPR; LY6G6D-Fc immobilized; TDB flowed at 37 C; remark: listed apart in the source
Kd [1],koff [1],kon [1],Kd [2] [nM],Kd [3] [nM],koff [3] [s⁻¹],kon [3] [M⁻¹ s⁻¹],Kd [4] [nM],Kd [5] [nM],koff [5] [s⁻¹],kon [5] [M⁻¹ s⁻¹],Binder
15.4 nM and 16.5 nM,0.0399 s⁻¹ and 0.0437 s⁻¹,2.6e+06 M⁻¹ s⁻¹ and 2.65e+06 M⁻¹ s⁻¹,15.9,,,,,,,,"LY6G6D TDB assembled using a one-cell system, anti-LY6G6D 20A12.QNTv12 arm (one-cell) and anti-CD3 38E4v1 (WT) arm (bispecific antibody, V domains shown) VH 1: EVQLLESGGGLVQPGGSLRLSCAASGFDFVNNAMIWVREAPGKGLEWVSALSFADNTAYYATWASGRFTISRDSSKTTVYLQMNSLRAEDTAVYYCMRGDLWGPGTLVTVSS VL 1: DIQMTQSPSTLSASVGDRVTITCQASESITRYLNWYQKKPGKAPKLLIYDASKLPSGVPSRFSGSGSGTEFTLTISSLQPDDFATYYCQSTSFRGRSYQNTFGGGTKVEIK VH 2: EVQLVQSGAEVKKPGASVKVSCKASGFTFTSYYIHWVRKAPGQGLEWIGWIYPENDNTKYNEKFKDRVTITADTSTSTAYLELSSLRSEDTAVYYCARDGYSRYYFDYWGQGTLVTVSS VL 2: DIVMTQSPDSLAVSLGERATINCKSSQSLLNSRTRKNYLAWYQEKPGQSPKLLIYWTSTRKSGVPDRFSGSGSGTDFTLTISSLQAEDVAVYYCKQSFILRTFGQGTKVEIK"
26.6 nM and 25.6 nM,0.0383 s⁻¹ and 0.0376 s⁻¹,1.44e+06 M⁻¹ s⁻¹ and 1.47e+06 M⁻¹ s⁻¹,26.1,3.63,0.000512,141000,,,,,"LY6G6D TDB assembled using a one-cell system, anti-LY6G6D 20A12.QNTv12 arm (one-cell) and anti-CD3 38E4.v1 MD1 arm (bispecific antibody, V domains shown) VH 1: EVQLLESGGGLVQPGGSLRLSCAASGFDFVNNAMIWVREAPGKGLEWVSALSFADNTAYYATWASGRFTISRDSSKTTVYLQMNSLRAEDTAVYYCMRGDLWGPGTLVTVSS VL 1: DIQMTQSPSTLSASVGDRVTITCQASESITRYLNWYQKKPGKAPKLLIYDASKLPSGVPSRFSGSGSGTEFTLTISSLQPDDFATYYCQSTSFRGRSYQNTFGGGTKVEIK VH 2: EVQLVQSGAEVKKPGASVKVSCKASGFTFTSYYIHWVRKAPGQGLEWIGWIYPENDNTKYNEKFKDRVTITADTSTSTAYLELSSLRSEDTAVYYCARDGYSRYYFDYWGQGTLVTVSS VL 2: DIVMTQSPDSLAVSLGERATINCKSSQSLLNSRTRKNYLAWYQEKPGQPPKLLIYWASTRESGVPDRFSGSGSGTDFTLTISSLQAEDVAVYYCTQSFILRTFGQGTKVEIK"
13 nM and 16.5 nM,0.0337 s⁻¹ and 0.0364 s⁻¹,2.6e+06 M⁻¹ s⁻¹ and 2.21e+06 M⁻¹ s⁻¹,14.8,1.92,0.000444,231000,2.29,2.29,0.00038,166000,"LY6G6D TDB comprising the anti-LY6G6D 20A12.QNTv12 arm (two-cell) and the anti-CD3 38E4.v1 arm (bispecific antibody, V domains shown) VH 1: EVQLLESGGGLVQPGGSLRLSCAASGFDFVNNAMIWVRQAPGKGLEWVSALSFADNTAYYATWASGRFTISRDSSKTTVYLQMNSLRAEDTAVYYCMRGDLWGPGTLVTVSS VL 1: DIQMTQSPSTLSASVGDRVTITCQASESITRYLNWYQQKPGKAPKLLIYDASKLPSGVPSRFSGSGSGTEFTLTISSLQPDDFATYYCQSTSFRGRSYQNTFGGGTKVEIK VH 2: EVQLVQSGAEVKKPGASVKVSCKASGFTFTSYYIHWVRQAPGQGLEWIGWIYPENDNTKYNEKFKDRVTITADTSTSTAYLELSSLRSEDTAVYYCARDGYSRYYFDYWGQGTLVTVSS VL 2: DIVMTQSPDSLAVSLGERATINCKSSQSLLNSRTRKNYLAWYQQKPGQSPKLLIYWTSTRKSGVPDRFSGSGSGTDFTLTISSLQAEDVAVYYCKQSFILRTFGQGTKVEIK"
14 nM and 14.7 nM,0.0433 s⁻¹ and 0.0426 s⁻¹,3.09e+06 M⁻¹ s⁻¹ and 2.89e+06 M⁻¹ s⁻¹,14.4,2.62,0.000574,219000,,,,,"LY6G6D TDB assembled using a one-cell system, anti-LY6G6D 20A12.QNTv12 arm (one-cell) and anti-CD3 38E4.v1 MD4 arm (bispecific antibody, V domains shown) VH 1: EVQLLESGGGLVQPGGSLRLSCAASGFDFVNNAMIWVREAPGKGLEWVSALSFADNTAYYATWASGRFTISRDSSKTTVYLQMNSLRAEDTAVYYCMRGDLWGPGTLVTVSS VL 1: DIQMTQSPSTLSASVGDRVTITCQASESITRYLNWYQKKPGKAPKLLIYDASKLPSGVPSRFSGSGSGTEFTLTISSLQPDDFATYYCQSTSFRGRSYQNTFGGGTKVEIK VH 2: EVQLVQSGAEVKKPGASVKVSCKASGFTFTSYYIHWVRKAPGQGLEWIGWIYPENDNTKYNEKFKDRVTITADTSTSTAYLELSSLRSEDTAVYYCARDGYSRYYFDYWGQGTLVTVSS VL 2: DIVMTQSPDSLAVSLGERATINCKSSQSLLNSRTRKNYLAWYQEKPGQPPKLLIYWASTRKSGVPDRFSGSGSGTDFTLTISSLQAEDVAVYYCKQSFILRTFGQGTKVEIK"
